# Publication PMC9135449
# Target: T1, HP1043 (Helicobacter pylori 26695?) (UniProt O25684)
# T1 sequence: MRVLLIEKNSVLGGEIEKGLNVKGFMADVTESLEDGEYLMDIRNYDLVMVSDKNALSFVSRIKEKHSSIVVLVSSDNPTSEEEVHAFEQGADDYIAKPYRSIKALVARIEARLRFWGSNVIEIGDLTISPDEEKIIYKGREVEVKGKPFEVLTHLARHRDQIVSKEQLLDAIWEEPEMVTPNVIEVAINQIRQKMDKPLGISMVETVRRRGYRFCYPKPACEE
# Assay: EMSA
# Conditions: 10 mM Tris-HCl pH 7.5, 40 mM KCl, 100 ug/ml BSA, 1 mM DTT, 5% glycerol, 25 ul, room temperature 30 min; 6% native PAGE in 45 mM Tris/45 mM orthoboric acid …
sequence,measurement,value
GCCAAAACGCCTAAAGCCACAATAACCTTTTTCATCGTTTGTCTCCTCTACTTATCAAAATGATCTTAAAATGATACAATTACAAGTTTAAGTTTTGCTTAAAAAATGAAGTGAAAATAAGAGAAATAAATATGATTTTATACATTCATATCCCCTTTTGTGAAAATAAATGCGGTTATTGCGCTTTCAA (double strand) [Php1227 190-bp promoter probe],binding,binds
